Data reported in PMC7337937, “CryoEM structures of human CMG–ATPγS–DNA and CMG–AND-1 complexes” (Nucleic Acids Research, 2020).

Tests used:
[1] = biological target: human CMG helicase (Cdc45-MCM2-7-GINS) (Homo sapiens, UniProt O75419;P49736;P25205-2;P33991;P33992;Q14566;P33993;Q14691;Q9Y248;Q9BRX5;Q9BRT9 …); experiment: cryo-EM structure (3.29 A); 100 uM ATPgS, 5 mM Mg acetate; ATPgS-Mg2+ at MCM6, MCM4, MCM7; ADP at MCM2, MCM3; MCM5 apo; Buffer S: 25 mM HEPES pH 7.5, 50 mM KCl, 5 mM Mg acetate, 2 mM DTT, with 100 uM ATPgS and 4 uM fork DNA, loaded on StrepTrap-bound CMG; eluted with 15 mM desthiobiotin; binding temperature not stated; settings: protein: recombinant; tags: MCM4 N-terminal His8-TEV; Psf2 C-terminal TEV-2xStrepII; copies: 1;1;1;1;1;1;1;1;1;1;1; fork: 40 bp duplex 1:1-40 2:31-70; 30 nt unpaired tails, 3' poly-dT (strand 1) and 5' GC-rich (strand 2)
[2] = biological target: the molecule itself; experiment: cryo-EM structure; CMGA: AND-1 co-expressed with the CMG subunits in HEK293-F, co-purified; 1 mM ATPγS added, glutaraldehyde cross-linked before grid preparation; 6.77 Å map, CMG structure and AND-1 trimer crystal structure docked as rigid bodies

Binder	binding result [1]	stoichiometry N [2]
fork DNA (70T/70GC) (mixed) DNA 1: CGTTTTACAACGTCGTGACTGGGCACTTGATCGGCCAACCTTTTTTTTTTTTTTTTTTTTTTTTTTTTTT DNA 2: CAGGCAGGCAGGCAGGCAGGCAGGCAGGCAGGTTGGCCGATCAAGTGCCCAGTCACGACGTTGTAAAACG	binds	–
human AND-1, recombinant full length (natural protein, UniProt O75717 1-1129, looked up, AND-1, human, full-length ORF from IMAGE cDNA clone 6514641; The tag is 2xStrepII-TEV; no TEV cleavage step is described; Only the SepB domain is visible in the map; also called AND-1 trimer; source: HEK293-F, transient co-transfection with the CMG subunits, co-purified as CMGA) MPATRKPMRYGHTEGHTEVCFDDSGSFIVTCGSDGDVRIWEDLDDDDPKFINVGEKAYSCALKSGKLVTAVSNNTIQVHTFPEGVPDGILTRFTTNANHVVFNGDGTKIAAGSSDFLVKIVDVMDSSQQKTFRGHDAPVLSLSFDPKDIFLASASCDGSVRVWQISDQTCAISWPLLQKCNDVINAKSICRLAWQPKSGKLLAIPVEKSVKLYRRESWSHQFDLSDNFISQTLNIVTWSPCGQYLAAGSINGLIIVWNVETKDCMERVKHEKGYAICGLAWHPTCGRISYTDAEGNLGLLENVCDPSGKTSSSKVSSRVEKDYNDLFDGDDMSNAGDFLNDNAVEIPSFSKGIINDDEDDEDLMMASGRPRQRSHILEDDENSVDISMLKTGSSLLKEEEEDGQEGSIHNLPLVTSQRPFYDGPMPTPRQKPFQSGSTPLHLTHRFMVWNSIGIIRCYNDEQDNAIDVEFHDTSIHHATHLSNTLNYTIADLSHEAILLACESTDELASKLHCLHFSSWDSSKEWIIDLPQNEDIEAICLGQGWAAAATSALLLRLFTIGGVQKEVFSLAGPVVSMAGHGEQLFIVYHRGTGFDGDQCLGVQLLELGKKKKQILHGDPLPLTRKSYLAWIGFSAEGTPCYVDSEGIVRMLNRGLGNTWTPICNTREHCKGKSDHYWVVGIHENPQQLRCIPCKGSRFPPTLPRPAVAILSFKLPYCQIATEKGQMEEQFWRSVIFHNHLDYLAKNGYEYEESTKNQATKEQQELLMKMLALSCKLEREFRCVELADLMTQNAVNLAIKYASRSRKLILAQKLSELAVEKAAELTATQVEEEEEEEDFRKKLNAGYSNTATEWSQPRFRNQVEEDAEDSGEADDEEKPEIHKPGQNSFSKSTNSSDVSAKSGAVTFSSQGRVNPFKVSASSKEPAMSMNSARSTNILDNMGKSSKKSTALSRTTNNEKSPIIKPLIPKPKPKQASAASYFQKRNSQTNKTEEVKEENLKNVLSETPAICPPQNTENQRPKTGFQMWLEENRSNILSDNPDFSDEADIIKEGMIRFRVLSTEERKVWANKAKGETASEGTEAKKRKRVVDESDETENQEEKAKENLNLSKKQKPLDFSTNQKLSAFAFKQE	–	3
